The results in this text go back to the domain aggregation screens of Martell et al. (2025).

A short description of the data set: soluble fraction after stress (log2 fold change); higher = more stays soluble; pooled small domains, quantitative proteomics. To be noted: stress: 50 degC. A digest of the protocol:
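Quantitative proteomics served as the high-throughput read-out for pooled custom libraries of small protein domains. Each was stressed at 50°C. Aggregation propensity is expressed as the base-two log fold change in soluble protein after stress. A higher value means a larger share of the protein remains in solution.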

Turning to “HMGSGVNVTVNGKRMNLPLKDDHIIFVDIFNYIDFDLSKPKGSIVLKLNGRDAGYTDPIKDGDVIDIYWQ”, the “soluble fraction (log2)” value amounted to 0.33. On to “HMGDLKALMPGKVTQVLVSGGQKVKVGEPVLLMESMKMEQTIVATKDGDISEILVSEGDTVEVGKIMIKI”, for which the “soluble fraction (log2)” value amounted to 0.163.

As for “HMGVHSVVPDIKNKHYGEAKAILAANGLSIEISDSIYDRSVAPGTVVESWPKAGAIVKGDRAVFVTLTAF”, the “soluble fraction (log2)” value is -1.28. Then “HMTGDISRALDQLPADMRTVLILYALEKQRYEDIAQITGVSVGTVKSRLNRARQKLAAILANQREQNE”, with -0.488. The same measure for “HMEPGEVQVDGLRFIAQPQERNDFEVALEQFRAGNFAAARKSFAAFINTYKQSGYLPSARFW”: -0.0516; for “HMPRVSIEKIKKVVELLKHNPDYTYSKIGNIVGIGRKTVSGINNGKLYTDLVEELGINEFPI”: -0.292; for “HMRKVVLEEKEANYYAEPNSESELLGVLKRGIHLTVTDVKKEAGSDGWVKLVHPDGQEGWISGRARIRV”: -0.0551. The same measure for “HMGEEIRTWTDAQGRKIEARMSMLDGDQVLLELKDGRKIPYPLAKLSADDAHYARHFASASASD”: 0.0254; for “HMNMANFARIRLILELHDRGMSQDEISRSRHMSRSTITTVLRTARKKGITYAGIRKLDDAALQKLFFPDR”: -3.88; for “HMKNINTNIGKNLKRIRKLRGLTIDALATSSGVSKSMISEIERGIRNPSITIIWSLANALKTPLNYFLKE”: -0.115.

For the sequence “HMTNEQLSKAKSWVQIAVYAAEKLYGAGNGDQKLVYAEEILRKHGIRLDTATLKAMIDAQIKEMEN”, the “soluble fraction (log2)” value was -0.149. With “HMYPATGTVVTAGGHLNMRSEPDRSGAILARIPNGTALTLTGKNGDWYAATYAGRSGYVSAQYISLS”, the “soluble fraction (log2)” value was -0.0468.

For “HMAVSSYSVKRYIRNMIQAEDPSAPFSDEALRLALLAHGIAVSRRVVTKYRMAMDIPSSSQRRKR”, the “soluble fraction (log2)” value is -0.866. Then “HMEYELYALKEEVLKRLTREDRELLILLFEERRTIHAVAQRLGLSDSAVYKRRTQLVNKVKVIASMLM”, with -2.13; and “HMQNAETPDVAAEFRTWTSADGQFQVIAKLVKLDGESVHLERQDDGRQIAVPLGKLSSEDRLFLRGVRP”, with 0.0447.

With “HMLSLGIMEADMLKTGKHTISGISKATPEQRQKIDSDIEELKKKYPEKNITSKVENDNLIVESGVTAP”, the “soluble fraction (log2)” value was found to be 0.278. Then “HMKKKLPRYLQEQKYGNGMVFYRYNPTARYIDEGIVTRTNLGSDLSIAKKKANEFNKLIDAFLQQQSE”, with -0.92; and “HMSAPEGWMNRGDLRDNFRIQYPVTDRIIASYRESHPEWFGTYLSKTSKSLEYFHPDLVAKVREAAN”, with -0.101; and “HMLTGESDNVEKSINKLGTENLALADQTNMGFKGTFINSGHGMAIVVKTGMQTELGKIASMIQIA”, with 0.21. The same measure for “HMDTITMAGERYAVSDLEKVSGDIFEKAFGFEIDPKTADAKDVLPTMPKSDVDLFKKLSGIKP”: 0.19. On to “HMIFEEDILKEFRGSLIFITHDRRFLDNIATRIIELDRGKLLSFPGNFSAYKKAKNEQLANEAVENA”, for which the “soluble fraction (log2)” value is -0.446.

Regarding “HMPRNEIQRSVLNELVQWIKNNLAKKLTMQALSRFSGYSEWHLFRLFRHYFNMSPMAYIRQQRMQ”, the “soluble fraction (log2)” value is -0.265. Then “HMDKTTIKNEQKKQILIFAEMNLFFKAKDVAELLGLQASRARYLLQELVKDGKIQGIGNNKGRKYQLI”, with -0.438; and “HMLHNEFINDRIQSAINNLSEHFKIVIILRDIQELSYEEISNIVEVPLGTIKSRINRARIQLQAELLDL”, with 0.269. Turning to “HMKIVFGHVKWFDIDKGFGFLVLEDEGGDVLLHANVLKNFGRTSVSEDTKIEFEFLETDKGRQVSTIYNIL”, the “soluble fraction (log2)” value was -3.85. Then “HMQAPHLALSPREFQVLQGLLAGDALDIIAERLHLSAKTVSNHQTLIRQKLGVGNAVELLRYAQLHRL”, with -2.15; and “HMKIRIIKTASNAKAVQIVSYKNNKRIVLQHIGSAHTDETLNDLKILAEEWIKDYNHQLSIF”, with -2.49; and “HMSDIATLVPGPTDAELAASALRGLDAALDADTPVRLSLGEPGGEVEVPRSVLAALARVLDSFAHGEGVTL”, with -0.136. The same measure for “HMATLQLPVPKITLYPGELIRSDHLTDQRFNARALYHSAVYKSREDIVGKVARRTLLPGQPIPVNALR”: -0.057; for “HMTGGLLVHVAGAVGAPGVVSLPEGARVVDAIEAAGGAREDADTDQLNLARPVVDGEQVRVPVVGEVLE”: -0.0748; for “HMNFMDGFQSFFQESGAMNRPMTADVVSYRLPDGTVQQGNSTMRGLMDQYLKSIGQSPTTGVP”: 0.00775. The same measure for “HMFTNSTSSRQLTNSDDTLRLNISSQTRQMLPNGQPFGGSLSGKLLLVIYGATTRSIPAQTTPEKIVV”: -0.134; for “HMPTMTDIPIKIIRSRRRTLAIEVREGGEVIVRAPLYSRKAEIDAFVKAHENWIITKYNLMITKQN”: -1.74.

Take “HMVDKDFKPLYASLERLDSTSIIEILDSNRIDYRIDQRSGALLVDADQIHQARLSLASAGMPA”: the “soluble fraction (log2)” value is -0.116. On to “HMDAPQRVTYLLPHSRGEVVSWLHRQGEVVAQEYEAEGVRVVVDLRYAQIRQAAKQFDVLPAEG”, for which the “soluble fraction (log2)” value is -0.0612. Then “HMSGSGYAYVDKYGYSHVVKDYDTAKNYASDGNVYNYSGSHKGGYAYDADNYRVPLDLPGSKPYG”, with -0.0115; and “HMEGRTVMATTAVNVRSGPGTSYKILGVLYPGHTAQQIGNTRYGWAQVTWKGHTAYIAARYLRDS”, with -2.41; and “HMYDEAAIRKAVMTFVTDNRDERLDLAKISAVLTSKFGNINFDELGYKRFSSFIDSFPELRRNNTFVSLR”, with -0.312.

For “HMNLAPLLTEYVQINFRRASEMKTYLEQANLISERGFLLADDQTNILMVRETGASIEEIRRTLNRF”, the “soluble fraction (log2)” value was -1.77. On to “HMAQQEMEIIPLRHRQVEQVMPTLRPLLEPGAALSGMNNQLILRASRKNREEIKQALAVIDT”, for which the “soluble fraction (log2)” value is 0.172. The same measure for “HMEATVGSRVRLARIGLTLTQKQLAQAVGVSANHLAMVERGSKHASEDLLQRIATATHTTYEWLMGTSEHQ”: -0.845; for “HMAFIEIMTEGDADGRGFQYPIPTYSITRDFDWSETENNKLLFEMTAKYGTPYFSNYINSDMEPSDV”: -0.535. With “HMSMEKNWVPSEDVIEILTRAGMNENFIRELIPEFIIYWSERKDVLISYDSKFIEHARLKWAQHNAE”, the “soluble fraction (log2)” value was 0.176.

As for “HMNVAETITLGKRLFNHALTILGKKQRNISRKQLKNFLNDLGLKDSKDLYESIGTGDKNPILMAQLLLG”, the “soluble fraction (log2)” value is -0.509. As to “HMTIFGWQTDETGKWYRNADGTFFEAGWKEIDGAKYYFDENGYVKTGWLELDGKDYYFDEEGRYDSSKVR”, the “soluble fraction (log2)” value is -0.33.

For “HMGYPGLGSIGSKPLGDLLFQSKLFVKTKREFAEFKMANNNIVWGRRTQYLVRNYPLSVMEVFL”, the “soluble fraction (log2)” value is -0.0279. Then “HMDFIEYIISEESKGLRADQAISMENDKFSRSLIQKWIKKGRVLVNGRKIKPKDIVNLNDKITINPEESIN”, with -0.143; and “HMKNEVENLSYMINRIIEYRDLNNLSNKNLANKIGISEALLSYILNGRRKLSKEIQRKIALFLLND”, with -1.49.

Take “HMDHKTKLQEVLQKSGDVFIEYRLIKEEGPAHERIFWIEVYVDDQLIGTGQGKSKKLAEQAAAENALAALE”: the “soluble fraction (log2)” value is -0.252. Then “HMDGIDALEPLMRRVFEALPQRRSMTIERAAVAAGLDEESVKIALVRLQLEGYVANDERGWHRSKSPH”, with -0.911; and “HMSWNIHEAVEYYKGQDAPQNQFALVELLKEVQEHNGGVLTDIAVEEIAALLNTKVTFLNAVIKRYPSLK”, with -0.287.

Regarding “HMERPEVVAYRLAYASAESLRPALGLVASPSDLEIDERTNTLIVRAVPSVQERVAELVASLDI”, the “soluble fraction (log2)” value is -0.237.

Consider “HMSSLTQREYEIAELVADGLSNKAIAAELSISHTTAARHVANIMNKLGFNSRSQIAAWVADRAQG”, for which the “soluble fraction (log2)” value was 0.11. For the sequence “HMAPVTPEERAQAMEEYKAMVTIEGYTPPKNIIEQNYKRGLWSETMLNMAVTKGAITEAEKLEIMN”, the “soluble fraction (log2)” value turned out to be 0.124. The same measure for “HMSVEYRKTLSDGNEYQIVKEKNGYVIKKSLNEGLDYLEPMKNRKYYSSYSQAFKRLNLIAKEVNINEGYD”: -0.138; for “HMEVKVSGHLEAIGGVYHMKLSWIDDAGKRRRKSKSTGLAERGNKKRANDMLIDFMREQEAEIAASGD”: -1.02. Regarding “HMGILPDDVKLNIKEAKKIGFPIMLKAIHGGGGRGMMIVQSEDEFADAMKITKTEAKNSFGNGDLYFEKFF”, the “soluble fraction (log2)” value is 0.238.

As for “HMDVQEILGALSPDEKAAIGQLTSGEKHIDQIIAATRLPAARITSALTLLQIKGYVRALPGKRFSLTEKQ”, the “soluble fraction (log2)” value was -0.0961. Then “HMPSGLFEPIKKSELSIESIDLLKDQIRAFKQADIRITFGFLLDLITKGENPAYVNASKLFEQAWER”, with 0.0685.

For “HMKSISMSKLRHLLQLYVQGRSKKLISEQTGIARNTLKKYIKEFSEAGLSLEALLALSDKELEDLFVK”, the “soluble fraction (log2)” value was -1.01.

Regarding “HMGKRGKEMQTAVLAILRASDRPYSAYELLESLKDIYPKIAPPTVYRALAALTQRGQIRRLESLNAFI”, the “soluble fraction (log2)” value is -0.325. Then “HMQQYLDAYDKALAFGIAMNKLPSYENLTLDDKEDVDKLKEIYDGMSNYEKTFVAKDFTDKLDRYVKRIE”, with -0.0367.

Regarding “HMDPDDEILINIMTKLLTEKQIIIKNKEIFNFLLKRINRTYEEVYNLINKMDKLSLEKKKQLTIPSIKEL”, the “soluble fraction (log2)” value is -1.21. On to “HMTDLDVAVTMTVALEEAVNGATRRVRLPNGKELNVKIPAGVAAGQQIRLKGQGETAPGHRPGDVLITVNI”, for which the “soluble fraction (log2)” value is -0.262. The same measure for “HMAQVSDDAELEKWADTAIDEHPKPVEEYRAGNAASINFLMGQVMKMSRGKANPGAVMQILKQKLD”: 0.109; for “HMSKEEAIQAMKEGKKVTHRFFSSDEWMTIENGFLLLEDGVRISLEDFFNFRSDSLWDNGYELYNPH”: -0.162.

On to “HMKFGEQIKERRQELDLTQAEVAEKLFVTRQAVSNWEHNKTYPDLNMLVKISNVYQISLDSLLR”, for which the “soluble fraction (log2)” value was -1.23. Then “HMQEKLELIIPVSSIGKRADVAIQDLLSSYSRAKIQEWIKSGFILLESKKISPKDIFMGGERVFIDIQQDE”, with -1.41; and “HMVERQVTVPNLTGLGVADAQRLAQSMELDIEVLGEQESTDARPGAVLQQTPGAGTRAAAGSVVSVLV”, with 0.0752.
